In US20210395379A1 (NUMAB THERAPEUTICS, published 2021):
Blank lines part the entries; values can stand above or below the binder they belong to.

Legend:
[1] = target: T1, Fc tagged human CD137 (R&D Systems, cat. 838-4B-100) (human, UniProt Q07011 24-186); assay: SPR (Biacore T200), CD137-Fc captured by anti-human Fc, molecule as analyte 0.18-45 nM
T1 construct: Bought Fc chimera; also called CD137 Fc chimera; human CD137 (tagged with Fc); not shown: Fc tag of the bought chimera
Method: (§1) Affinity to PDL1 was determined by SPR measurements using a Biacore T200 device (GE Healthcare). In this experiment, Fc tagged PDL1 from different species was captured using the Human Antibody Capture kit from GE Healthcare (cat. BR-1008-39). After each analyte injection cycle, the anti-human Fc-specific IgG was regenerated and new antigen was captured. For all formats, the multispecific molecules were injected as analyte using a dose response multi-cycle kinetic assay with concentrations of the analyte ranging from 0.18 to 45 nM (two-fold dilutions steps) diluted in running buffer. Association and dissociation time were set to 300 s and 720 s, respectively. The apparent dissociation (kd) and association (kₐ) rate constants and the apparent dissociation equilibrium constant (KD) were calculated using one-to-one Langmuir binding model. Affinity to CD137 of the different species was determined using the identical setup as for PDL1 with the exception that CD137-Fc chimeric proteins from different species were captured by the immobilized antibody.

Fc tagged human PD-L1 = target: T2, Fc tagged human PD-L1 (human, UniProt Q9NZQ7 19-238, limits assumed); assay: SPR (Biacore T200), Fc tagged PDL1 captured by anti-human Fc, molecule as analyte 0.18-45 nM
T2 construct: not shown: Fc tag
Method: as §1

[2] = target: T1, Fc tagged human CD137 (R&D Systems, …); assay: SPR (Biacore T200), Fc tagged human CD137 captured by anti-human Fc, scFv as analyte
Method: In this experiment, Fc tagged human CD137 (R&D Systems, cat. 838-4B-100) was captured using the Human Antibody Capture kit from GE healthcare (cat. BR-1008-39). After each analyte injection cycle, the anti-human Fc-specific IgG was regenerated and new antigen was captured. The scFvs were injected as analyte using a dose response multi-cycle kinetic assay over the captured CD137 with concentrations of the analyte ranging from 0.19 to 45 nM (three-fold dilutions steps) diluted in running buffer. Association and dissociation time were set to 300 s and 720 s, respectively. The obtained sensorgrams were fitted using the 1:1 binding model.

[3] = target: CD137 (form used for the alanine mutants of PRO1359 not stated) (Homo sapiens (Human), UniProt Q07011 24-186, limits assumed); assay: assay not described
human serum albumin = target: T3, human serum albumin (human, UniProt P02768 25-609); assay: SPR (Biacore T200), serum albumin amine-coupled to CM5 chip, pH 5.5
T3 construct: Amine-coupled to a CM5 chip; also called human SA; HSA
Method: Affinity of molecules to serum albumin (SA) of the different species was determined by SPR measurements using a Biacore T200 device (GE Healthcare). SA was directly coupled to a CM5 sensor chip (GE Healthcare) using amine coupling chemistry. […] The assay was run in a 1×PBS-Tween buffer at pH 5.5.

[4] = target: human CD137 expressed on Jurkat cells (human, UniProt Q07011 24-255); assay: cell-based or functional assay

kon [1]: 190000 M⁻¹ s⁻¹
B1: PRO1186 (other)
chain: DIQMTQSPSSLSASVGDRVTITCQASQSIGTYLAWYQQKPGKAPKLLIYRAFILASGVPSRFSGSGSGTDFTLTISSLQPEDFATYYCQSNFYSDSTTIGPNAFGTGTKVTVLGGGGGSQVQLQESGPGLVKPSETLSLTCKVSGFSFSNSYWICWIRQPPGKGLEWIGCTFVGSSDSTYYANWAKGRVTISVDSSKNQFSLKLSSVTAADTAVYYCARHPSDAVYGYANNLWGQGTLVTVSSGGGGSGGGGSGGGGSGGGGSDIQMTQSPSSLSASVGDRVTITCQASQSINNVLAWYQQKPGKAPKLLIYRASTLASGVPSRFSGSGSGTDFTLTISSLQPEDFATYYCQSSYGNYGDFGTGTKVTVLGGGGGSQVQLQESGPGLVKPSETLSLTCKVSGFSFNSDYWIYWIRQPPGKGLEWIGSIYGGSSGNTQYASWAQGRVTISVDSSKNQFSLKLSSVTAADTAVYYCARGYVDYGGATDLWGQGTLVTVSSGGGGSGGGGSVVMTQSPSSLSASVGDRVTITCQASQIISSRSAWYQQKPGQPPKLLIYQASKLASGVPSRFSGSGSGTDFTLTISSLQPEDFATYYCQCTYIDSNFGAFGGGTKLTVLGGGGGSGGGGSGGGGSGGGGSEVQLVESGGGLVQPGGSLRLSCAASGFSFSSSYWICWVRQAPGKGLEWVGCVFTGDGTTYYASWAKGRFTISRDNSKNTVYLQMNSLRAEDTATYFCARPVSVYYYGMDLWGQGTLVTVSS
notes: Trispecific scDb-scFv with a different anti-CD137 domain; also called PR01186

Kd [1]: 3.2 nM | Kd (Fc tagged human PD-L1): 0.065 nM
B2: PRO885 (bispecific antibody)
chain: DIQMTQSPSSLSASVGDRVTITCQASQSINDYLAWYQQKPGKAPKLLIYKASTLASGVPSRFSGSGSGTDFTLTISSLQPEDFATYYCQQGYIITDIDNVFGTGTKVTVLGGGGGSQVQLQESGPGLVKPSETLSLTCKVSGFSFSNSYWICWIRQPPGKGLEWIGCTFVGSSDSTYYANWAKGRVTISVDSSKNQFSLKLSSVTAADTAVYYCARHPSDAVYGYANNLWGQGTLVTVSSGGGGSGGGGSGGGGSGGGGSIQMTQSPSSLSASVGDRVTITCQASQSINNVLAWYQQKPGKAPKLLIYRASTLASGVPSRFSGSGSGTDFTLTISSLQPEDFATYYCQSSYGNYGDFGTGTKVTVLGGGGGSQVQLQESGPGLVKPSETLSLTCKVSGFSFSSGYDMCWIRQPPGKGLEWIGCVVAGSVDITYYASWAKGRVTISVDSSKNQFSLKLSSVTAADTAVYYCARKDAYSDAFNLWGQGTLVTVSS

Kd [2]: 3.07 nM | koff [2]: 0.00353 s⁻¹ | kon [2]: 1.15e+06 M⁻¹ s⁻¹
B3: PRO1704 (38-27-A11 sc07) (scFv)
scFv: DIQMTQSPSSLSASVGDRVTITCQASQSISNRLAWYQQKPGKAPKLLIYSASTLASGVPSRFSGSGSGTDFTLTISSLQPEDFATYYCQSTYYGNDGNAFGCGTKVTVLGGGGGSGGGGSGGGGSGGGGSEVQLVESGGGLVQPGGSLRLSCAASGFSFSANYYPCWVRQAPGKCLEWIGCIYGGSSDITYDANWTKGRFTISRDNSKNTVYLQMNSLRAEDTAVYYCARSAWYSGWGGDLWGQGTLVTVSS
notes: VL-linker-VH, CDR graft with interdomain disulfide (VL-T141C)

fold reduction of affinity against unmutated PRO1359 [3]: > 1000 fold
B4: PRO1359 with TRP 233 mutated to alanine (scFv)
scFv: DIQMTQSPSSLSASVGDRVTITCQASQSISNRLAWYQQKPGKAPKLLIYSASTLASGVPSRFSGSGSGTDFTLTISSLQPEDFATYYCQSTYYGNDGNAFGTGTKVTVLGGGGGSGGGGSGGGGSGGGGSEVQLVESGGGLVQPGGSLRLSCAASGFSFSANYYPCWVRQAPGKGLEWIGCIYGGSSDITYDANWTKGRFTISRDNSKNTVYLQMNSLRAEDTAVYYCARSAAYSGWGGDLWGQGTLVTVSS

fold reduction of affinity against unmutated PRO1359 [3]: > 1000 fold
B5: PRO1359 with TYR 191 mutated to alanine (scFv)
scFv: DIQMTQSPSSLSASVGDRVTITCQASQSISNRLAWYQQKPGKAPKLLIYSASTLASGVPSRFSGSGSGTDFTLTISSLQPEDFATYYCQSTYYGNDGNAFGTGTKVTVLGGGGGSGGGGSGGGGSGGGGSEVQLVESGGGLVQPGGSLRLSCAASGFSFSANYYPCWVRQAPGKGLEWIGCIYGGSSDITADANWTKGRFTISRDNSKNTVYLQMNSLRAEDTAVYYCARSAWYSGWGGDLWGQGTLVTVSS

Kd (human serum albumin): 1.03 nM | koff (human serum albumin): 0.000337 s⁻¹ | Kd (Fc tagged human PD-L1): 0.015 nM | koff (Fc tagged human PD-L1): 5.1e-05 s⁻¹ | IC50 (ng/ml), activation of NF-kB reporter gene, HCC827 + IFNg, 6 h, with HSA [4]: 6.44 ng/mL | IC50 (ng/ml), activation of NF-kB reporter gene, HCC827 + IFNg, 24 h, with HSA [4]: 4.67 ng/mL
B6: PRO1480 (other)
chain: DIQMTQSPASLSASVGDRVTITCQASQSIGTYLAWYQQKPGKPPKLLIYRAFILASGVPSRFSGSGSGTDFTLTISSLQPEDFATYYCQSNFYSDSTTIGPNAFGTGTKVTVLGGGGGSEVQLVESGGGLVQPGGSLRLSCAASGFSFSANYYPCWVRQAPGKGLEWIGCIYGGSSDITYDANWTKGRFTISRDNSKNTVYLQMNSLRAEDTAVYYCARSAWYSGWGGDLWGQGTLVTVSSGGGGSGGGGSGGGGSGGGGSIQMTQSPSSLSASVGDRVTITCQASQSISNRLAWYQQKPGKAPKLLIYSASTLASGVPSRFSGSGSGTDFTLTISSLQPEDFATYYCQSTYYGNDGNAFGTGTKVTVLGGGGGSEVQLVESGGGLVQPGGSLRLSCAASGFSFNSDYWIYWVRQAPGKGLEWIASIYGGSSGNTQYASWAQGRFTISRDNSKNTVYLQMNSLRAEDTAVYFCARGYVDYGGATDLWGQGTLVTVSSGGGGSGGGGSIQMTQSPSSLSASVGDRVTITCQSSESVYSNNQLSWYQQKPGQPPKLLIYDASDLASGVPSRFSGSGSGTDFTLTISSLQPEDFATYYCAGGFSSSSDTAFGGGTKLTVLGGGGGSGGGGSGGGGSGGGGSEVQLVESGGGLVQPGGSLRLSCAASGFSLSSNAMGWVRQAPGKGLEYIGIISVGGFTYYASWAKGRFTISRDNSKNTVYLQMNSLRAEDTATYFCARDRHGGDSSGAFYLWGQGTLVTVSS
notes: Trispecific scDb-scFv; CD137 arm derived from 38-27-A11 sc02; also called PRO1480 (38-27-A11); trispecific anti-PDL1xCD137xHSA scDb-scFv

koff (Fc tagged human PD-L1): 4.3e-05 s⁻¹ | IC50 (ng/ml), activation of NF-kB reporter gene, HCC827 + IFNg, 6 h, with HSA [4]: 7.22 ng/mL | IC50 (ng/ml), activation of NF-kB reporter gene, HCC827 + IFNg, 24 h, with HSA [4]: 5.51 ng/mL
B7: PRO1481 (other)
chain: DIQMTQSPASLSASVGDRVTITCQASQSIGTYLAWYQQKPGKPPKLLIYRAFILASGVPSRFSGSGSGTDFTLTISSLQPEDFATYYCQSNFYSDSTTIGPNAFGTGTKVTVLGGGGGSESQLVESGGGLVQPGGSLRLSCAASGFSFSANYYPCWVRQAPGKGLEWIGCIYGGSSDITYDANWTKGRFTISRDNSKNTVYLQMNSLRAEDTAVYFCARSAWYSGWGGDLWGPGTLVTVSSGGGGSGGGGSGGGGSGGGGSFQLTQSPSSLSASVGDRVTITCQASQSISNRLAWYQQKPGKPPKLLIYSASTLASGVPSRFSGSGSGTDFTLTISSLQPEDFATYYCQSTYYGNDGNAFGTGTKVTVLGGGGGSEVQLVESGGGLVQPGGSLRLSCAASGFSFNSDYWIYWVRQAPGKGLEWIASIYGGSSGNTQYASWAQGRFTISRDNSKNTVYLQMNSLRAEDTAVYFCARGYVDYGGATDLWGQGTLVTVSSGGGGSGGGGSIQMTQSPSSLSASVGDRVTITCQSSESVYSNNQLSWYQQKPGQPPKLLIYDASDLASGVPSRFSGSGSGTDFTLTISSLQPEDFATYYCAGGFSSSSDTAFGGGTKLTVLGGGGGSGGGGSGGGGSGGGGSEVQLVESGGGLVQPGGSLRLSCAASGFSLSSNAMGWVRQAPGKGLEYIGIISVGGFTYYASWAKGRFTISRDNSKNTVYLQMNSLRAEDTATYFCARDRHGGDSSGAFYLWGQGTLVTVSS
notes: Trispecific scDb-scFv; CD137 arm derived from 38-27-A11 sc03
